Assay results reported in patent publication US20220403001A1, “PDE5 DERIVED REGULATORY CONSTRUCTS AND METHODS OF USE IN IMMUNOTHERAPY” (Obsidian Therapeutics, Inc., priority 2018, published 2022).

Columns and labels:
hPDE5 mutants [1] = molecular target: T1, hPDE5 mutants (Homo sapiens, UniProt O76074); assay: Western blot of AcGFP/GFP protein levels in HCT 116 cells expressing hPDE5 mutants; type: cell-based; set-up: GFP protein levels (western blot); fused on or other part: AcGFP reporter through a linker; settings: vardenafil vs DMSO, HCT 116, R732 mutants
Description: Protein expression analysis of the combination mutants was performed in parallel via western blot. […] GAPDH levels were also analyzed to ensure even protein loading.

hPDE5 mutants [2] = assay: GFP MFI by FACS in HCT116 cells transduced with hPDE5 constructs; type: cell-based, human; settings: for MFI: 48 hours, HCT 116 cells; for Sildenafil Destabilizing mutation coefficient / Vardenafil Destabilizing mutation coefficient / GFP by FACS, Sildenafil 0 μM (DMSO) / GFP by FACS, Vardenafil 0 μM (DMSO): hotspot constructs; for Sildenafil Destabilizing mutation coefficient: DMSO control of Sildenafil; for Sildenafil Destabilizing mutation coefficient / Vardenafil Destabilizing mutation coefficient: vs OT-001075; for Vardenafil Destabilizing mutation coefficient: DMSO control of Vardenafil; for GFP by FACS, Sildenafil 0 μM (DMSO): HCT116, DMSO control of Sildenafil; for GFP by FACS, Vardenafil 0 μM (DMSO): HCT116, DMSO control of Vardenafil
Description: (§1) Desirable qualities of a DD include, low expression of the SRE in the absence of ligand and ligand dependent stabilization of the SRE. Constructs were generated using DDs linked to GFP using an SG linker. […] The mean fluorescence intensity (MFI) of GFP was analyzed by FACS. […] Destabilizing mutation coefficient less than 1 are desirable.
(§2) Mean fluorescence intensity (MFI) was measured by FACS. […] Destabilizing mutation coefficient ratios less than 1 are desirable.
(§3) Mean fluorescence intensity (MFI) was measured by FACS. […] Destabilizing mutation co-efficient ratios less than 1 are desirable.
(§4) Mean fluorescence intensity (MFI) was measured by FACS. […] Destabilizing mutation coefficient less than 1 are desirable.
as §4
(§5) Mean fluorescence intensity (MFI) of GFP was measured by FACS.
(§6) Mean fluorescence intensity (MFI) was measured by FACS.
(§7) The media containing the ligand was removed and fresh media without the ligand was added.
(§8) The properties of the DDs were analyzed in the presence and absence of ligands via FACS as previously described.
(§9) GFP fluorescence was measured by FACS.
(§10) The properties of the DDs were analyzed via FACS both in the presence and absence of ligands.
as §9

hPDE5 mutants [3] = molecular target: T1, hPDE5 mutants; assay: as above; type: cell-based; settings: for Vardenafil Stabilization ratio / Sildenafil Stabilization ratio / GFP by FACS, Sildenafil 10 μM / GFP by FACS, Vardenafil 1 μM: hotspot constructs; for Vardenafil Stabilization ratio: 1 μM Vardenafil; for Sildenafil Stabilization ratio: 10 μM Sildenafil; for GFP by FACS, Sildenafil 10 μM / GFP by FACS, Vardenafil 1 μM: HCT116
Description: as §1, §2, §3, §4, §4, §5, §6, §7, §8, §9, §10, §9

[4] = Table 44, Vardenafil 0.01 μM, 48 h, HCT 116
[5] = Table 44, Vardenafil 0.04 μM, 48 h, HCT 116
[6] = Table 44, Vardenafil 3.33 μM, 48 h, HCT 116
[7] = Table 44, Vardenafil 10 μM, 48 h, HCT 116
[8] = Table 44, Vardenafil 30 μM, 48 h, HCT 116
[9] = Table 44, Vardenafil 1000 μM, 48 h, HCT 116
[10] = Table 45, Sildenafil 0.01 μM, 48 h, HCT 116
[11] = Table 45, Sildenafil 0.04 μM, 48 h, HCT 116
[12] = Table 45, Sildenafil 3.33 μM, 48 h, HCT 116
[13] = Table 45, Sildenafil 10 μM, 48 h, HCT 116
[14] = Table 45, Sildenafil 30 μM, 48 h, HCT 116
[15] = Table 45, Sildenafil 1000 μM, 48 h, HCT 116
[16] = Tadalafil 0.01 μM, 48 hours, HCT 116 cells

Row | Substance | GFP protein levels (western blot) (hPDE5 mutants [1]) | MFI (hPDE5 mutants [2]; Tadalafil 11.11 μM) | MFI (hPDE5 mutants [2]; Tadalafil 33.33 μM) | MFI (hPDE5 mutants [2]; Tadalafil 100 μM) | MFI (hPDE5 mutants [2]; Tadalafil 1000 μM) | Sildenafil Destabilizing mutation coefficient (hPDE5 mutants [2]) | Vardenafil Destabilizing mutation coefficient (hPDE5 mutants [2]) | GFP by FACS, Sildenafil 0 μM (DMSO) (hPDE5 mutants [2]) | GFP by FACS, Vardenafil 0 μM (DMSO) (hPDE5 mutants [2]) | MFI (hPDE5 mutants [3]; [4]) | MFI (hPDE5 mutants [3]; [5]) | MFI (hPDE5 mutants [3]; [6]) | MFI (hPDE5 mutants [3]; [7]) | MFI (hPDE5 mutants [3]; [8]) | MFI (hPDE5 mutants [3]; [9]) | MFI (hPDE5 mutants [3]; [10]) | Vardenafil Stabilization ratio (hPDE5 mutants [3]) | Sildenafil Stabilization ratio (hPDE5 mutants [3]) | GFP by FACS, Sildenafil 10 μM (hPDE5 mutants [3]) | GFP by FACS, Vardenafil 1 μM (hPDE5 mutants [3]) | also measured
1 | OT-001191: hPDE5 R732F AcGFP construct | Modest ligand dependent stabilization of GFP levels | 4734 | 5293 | 5867 | 5867 | 0.24 | 1.17 | 233 | 189 | 2188 | 8468 | 14705 | 17021 | 20693 | 20693 | 688 | 4.99 | 1.51 | 351 | 943 | MFI (hPDE5 mutants [3]; [11]): 916; MFI (hPDE5 mutants [3]; [12]): 3555; MFI (hPDE5 mutants [3]; [13]): 4427; MFI (hPDE5 mutants [3]; [14]): 5449; MFI (hPDE5 mutants [3]; [15]): 5449; MFI (hPDE5 mutants [3]; [16]): 631
2 | OT-001192: hPDE5 R732W AcGFP construct | strong stabilization of GFP levels | – | – | – | – | 0.25 | 1.87 | 248 | 301 | – | – | – | – | – | – | – | 0.59 | 0.64 | 158 | 179 | –
3 | OT-001193: hPDE5 R732Y AcGFP construct | strong stabilization of GFP levels | – | – | – | – | 0.4 | 1.88 | 397 | 302 | – | – | – | – | – | – | – | 1.14 | 1.63 | 648 | 345 | –
4 | OT-001195: hPDE5 R732H AcGFP construct | strong stabilization of GFP levels | – | – | – | – | 0.36 | 1.91 | 352 | 308 | – | – | – | – | – | – | – | 1.06 | 2.02 | 710 | 328 | –
5 | OT-001196: hPDE5 R732S AcGFP construct | strong stabilization of GFP levels | – | – | – | – | 0.77 | 3.52 | 760 | 566 | – | – | – | – | – | – | – | 0.7 | 0.98 | 746 | 399 | –
6 | OT-001197: hPDE5 R732T AcGFP construct | strong stabilization of GFP levels | 12843 | 17164 | 21113 | 21113 | 0.28 | 1.46 | 276 | 235 | 2854 | 6862 | 41788 | 48946 | 67364 | 67364 | 856 | 1.15 | 1.98 | 546 | 270 | MFI (hPDE5 mutants [3]; [11]): 1041; MFI (hPDE5 mutants [3]; [12]): 6896; MFI (hPDE5 mutants [3]; [13]): 12407; MFI (hPDE5 mutants [3]; [14]): 21258; MFI (hPDE5 mutants [3]; [15]): 21258; MFI (hPDE5 mutants [3]; [16]): 825
